T1: human GPRC5D (UniProt Q9NZD1 1-345)
T1 chain: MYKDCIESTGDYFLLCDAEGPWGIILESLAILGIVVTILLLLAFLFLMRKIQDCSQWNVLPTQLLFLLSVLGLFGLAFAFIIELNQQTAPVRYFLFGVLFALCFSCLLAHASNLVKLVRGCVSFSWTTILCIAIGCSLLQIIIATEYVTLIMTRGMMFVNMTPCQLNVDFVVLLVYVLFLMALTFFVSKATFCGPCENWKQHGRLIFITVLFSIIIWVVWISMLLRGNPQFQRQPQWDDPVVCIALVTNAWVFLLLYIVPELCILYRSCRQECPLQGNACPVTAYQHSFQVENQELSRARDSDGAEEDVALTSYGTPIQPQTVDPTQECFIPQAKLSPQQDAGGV

B1: GC5B603 (antibody, V domains shown)
VH: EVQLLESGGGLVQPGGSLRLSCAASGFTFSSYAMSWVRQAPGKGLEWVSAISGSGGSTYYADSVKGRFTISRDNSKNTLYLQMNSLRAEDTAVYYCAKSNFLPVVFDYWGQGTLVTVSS
VL: EIVLTQSPATLSLSPGERATLSCRASQSVRKSLAWYQQKPGQAPRLLIYTASNRATGIPARFSGSGSGTDFTLTISSLEPEDFAVYYCQQYFRAPITFGQGTKVEIKK
B2: GC5B599 (antibody, V domains shown)
VH: EVQLVQSGAEVKKPGESLKISCKGSGYSFTSYFIGWVRQMPGKGLEWMGIIYPGKSDTRYSPSFQGQVTISADKSISTAYLQWSSLKASDTAMYYCARVYSFGGRHKALFDYWGQGTLVTVSS
VL: EIVLTQSPATLSLSPGERATLSCRASQSVSSYLAWYQQKPGQAPRLLIYDASNRATGIPARFSGSGSGTDFTLTISSLEPEDFAVYYCQQRSNWPLTFGQGTKVEIK

Biological target: T1, human GPRC5D
Assay: FACS cell binding; MM.1R cells

| Binder | EC50 |
| --- | --- |
| B1 | 1.67 nM |
| B2 | 0.1 nM |

Reference: patent US20180037651A1 (published 2018)
